Starred links: 1 amine or outer side, 2 acyl side, 3 side chain; linkers in the order of their positions; H or OH if unused. Positions of bridges follow the written chain, without caps; N, C: chain ends. Non-standard residues stand in square brackets, D forms with d. Primed or numbered codes have the meaning given here. No end group written: not given here. ξ: configuration not given here. *: point of attachment. PyrS2″ = (S)-3-amino-1-((pent-4-en-1-yloxy)carbonyl)pyrrolidine-3-carboxylic acid (stapling residue), C=CCCCOC(=O)N1CC[C@@](N[*:1])(C(=O)[*:2])C1; B5(4) = 2,2-bis(4-pentenyl)glycine = 2-amino-2-(pent-4-en-1-yl)hept-6-enoic acid (stitching residue), C=CCCCC(CCCC=C)(N[*:1])C(=O)[*:2]; B5(5) = 2,2-bis(4-pentenyl)glycine, 2-amino-2-(pent-4-en-1-yl)hept-6-enoic acid (stitching residue), C=CCCCC(CCCC=C)(N[*:1])C(=O)[*:2]; TfeGA = (S)-2-amino-3-((carboxymethyl)(2,2,2-trifluoroethyl)amino)propanoic acid, O=C([C@H](CN(CC(=O)[*:3])CC(F)(F)F)N[*:1])[*:2]; PyrS2 = (S)-3-amino-1-((pent-4-en-1-yloxy)carbonyl)pyrrolidine-3-carboxylic acid, C=CCCCOC(=O)N1CC[C@@](N[*:1])(C(=O)[*:2])C1; B5(3) = 2,2-bis(4-pentenyl)glycine (stitching residue), C=CCCCC(CCCC=C)(N[*:1])C(=O)[*:2]; B5 = 2-amino-2-(pent-4-en-1-yl)hept-6-enoic acid, C=CCCCC(CCCC=C)(N[*:1])C(=O)[*:2]; Phe(3-CF3) = N[C@@H](Cc1cccc(C(F)(F)F)c1)C(=O)O; Phe(3-COOH) = N[C@@H](Cc1cccc(C(=O)O)c1)C(=O)O; 2F3MeF = Cc1cccc(C[C@H](N[*:1])C(=O)[*:2])c1F; Phe(2-Cl) = N[C@@H](Cc1ccccc1Cl)C(=O)O; Bta = N[C@@H](Cc1csc2ccccc12)C(=O)O; Lys(iPr) = CC(C)NCCCC[C@H](N)C(=O)O; hTyr = N[C@@H](CCc1ccc(O)cc1)C(=O)O; αAllylPro = C=CC[C@@]1(C(=O)O)CCCN1; tBuAla = CC(C)(C)C[C@H](N)C(=O)O; 3Thi = N[C@@H](Cc1ccsc1)C(=O)O; Cha = N[C@@H](CC1CCCCC1)C(=O)O; Thr(ol) = C[C@@H](O)[C@H](N)CO; ξβ3hD = NC(CC(=O)O)CC(=O)O; hSer = N[C@@H](CCO)C(=O)O; iPr = CC(C)*

Experimental findings from patent US20240116985A1, “STAPLED PEPTIDES AND METHODS THEREOF” (priority 2020, published 2024) are described below.

The chains are these.
B1: I-1149 (peptide)
peptide: Ac-[αAllylPro]D[Cha][B5(4)]DDLLFS[PyrS2″][Phe(2-Cl)][Bta]Q-NH2
modifications: staple 1-4, 4-11
B2: I-1113 (peptide)
peptide: Ac-[αAllylPro]D[Cha][B5(5)]DDAAF[Cha][PyrS2″][Phe(2-Cl)][Bta]S-NH2
modifications: staple 1-4, 4-11
B3: I-1268 (peptide)
peptide: Ac-[αAllylPro]D[tBuAla][B5(3)]DTAA[Phe(3-CF3)]T[PyrS2″]F[Bta]S-NH2
modifications: staple 1-4; staple 4-11 (inferred); not fully specified; printed as Ac-PL3-Asp-Npg-B5-Asp-Thr-Ala-Ala-3F3MeF-Thr-PyrS2-Phe-BztA-Ser-NH2
B4: I-1313 (peptide)
peptide: Ac-[αAllylPro]D[tBuAla][B5(5)]DDK(iPr)AFL[PyrS2″][Phe(2-Cl)][Bta][Thr(ol)]
modifications: staple 1-4, 4-11
B5: I-1166 (peptide)
peptide: Ac-[αAllylPro]D[tBuAla][B5(4)]DTAAFT[PyrS2″][3Thi][Bta]Q-NH2
modifications: staple 1-4, 4-11
B6: I-1331 (peptide)
peptide: [αAllylPro]D[tBuAla][B5]DDAAFF[PyrS2][Cha][Bta]Q-NH2
modifications: staple 1-4; staple 4-11 (inferred)
B7: I-1161 (peptide)
peptide: Ac-[αAllylPro][ξβ3hD][tBuAla][B5(4)]D[TfeGA]AAFN[PyrS2″][3Thi][Bta]Q-NH2
modifications: staple 1-4, 4-11
B8: I-1167 (peptide)
peptide: Ac-[αAllylPro]D[tBuAla][B5(4)]DTAAFL[PyrS2″][3Thi][Bta]Q-NH2
modifications: staple 1-4, 4-11
B9: I-2124 (peptide)
peptide: Ac-[αAllylPro]D[tBuAla][B5(4)]DYAA[Phe(3-COOH)][hSer][PyrS2″][3Thi][Bta]Q-NH2
modifications: staple 1-4, 4-11; also: earlier eluting HPLC isomer composition
B10: I-2115 (peptide)
peptide: Ac-[αAllylPro]D[tBuAla][B5(4)]D[hTyr]AA[Phe(3-COOH)]N[PyrS2″][3Thi][Bta]Q-NH2
modifications: staple 1-4, 4-11; also: later eluting HPLC isomer composition
B11: I-2109 (peptide)
peptide: Ac-[αAllylPro]N[Cha][B5(4)]DQ[Lys(iPr)]AFN[PyrS2″]F[Bta]H-NH2
modifications: staple 1-4, 4-11
B12: I-2129 (peptide)
peptide: Ac-[αAllylPro]D[tBuAla][B5(4)]DWAA[Phe(3-COOH)]L[PyrS2″][3Thi][Bta]Q-NH2
modifications: staple 1-4, 4-11
B13: I-2112 (peptide)
peptide: Ac-[αAllylPro]N[Cha][B5(3)]DQ[Lys(iPr)]AFN[PyrS2″]F[Bta]T-NH2
modifications: staple 1-4, 4-11
B14: I-2114 (peptide)
peptide: Ac-[αAllylPro]D[tBuAla][B5(4)]D[hTyr]AA[Phe(3-COOH)]N[PyrS2″][3Thi][Bta]Q-NH2
modifications: staple 1-4, 4-11; also: earlier eluting HPLC isomer composition
B15: I-2098 (peptide)
peptide: Ac-[αAllylPro]D[tBuAla][B5(4)]D[Phe(3-COOH)]A[dA]FL[PyrS2″][2F3MeF][Bta]A-NH2
modifications: staple 1-4, 4-11; also: earlier-eluting HPLC isomer composition
B16: I-2126 (peptide)
peptide: Ac-[αAllylPro]D[tBuAla][B5(4)]DYAA[Phe(3-COOH)]L[PyrS2″][3Thi][Bta]Q-NH2
modifications: staple 1-4, 4-11
B17: I-2118 (peptide)
peptide: Ac-[αAllylPro]D[tBuAla][B5(4)]DHAA[Phe(3-COOH)]N[PyrS2″][3Thi][Bta]Q-NH2
modifications: staple 1-4, 4-11; also: earlier eluting HPLC isomer composition
B18: I-2101 (peptide)
peptide: Ac-[αAllylPro]D[tBuAla][B5(3)]D[Phe(3-COOH)]A[dA]FL[PyrS2″][2F3MeF][Bta][dA]-NH2
modifications: staple 1-4, 4-11
B19: I-2119 (peptide)
peptide: Ac-[αAllylPro]D[tBuAla][B5(4)]DHAA[Phe(3-COOH)]N[PyrS2″][3Thi][Bta]Q-NH2
modifications: staple 1-4, 4-11; also: later eluting HPLC isomer composition
B20: I-2110 (peptide)
peptide: Ac-[αAllylPro]N[Cha][B5(4)]DQ[Lys(iPr)]AFN[PyrS2″]F[Bta]K-NH2
modifications: staple 1-4, 4-11
B21: I-2102 (peptide)
peptide: Ac-[αAllylPro]N[Cha][B5(4)]DQ[Lys(iPr)]AF[Lys(iPr)][PyrS2″]F[Bta][hSer]-NH2
modifications: staple 1-4, 4-11
B22: I-2111 (peptide)
peptide: Ac-[αAllylPro]N[Cha][B5(4)]DQ[Lys(iPr)]AFN[PyrS2″]F[Bta]N-NH2
modifications: staple 1-4, 4-11
B23: I-2125 (peptide)
peptide: Ac-[αAllylPro]D[tBuAla][B5(4)]DYAA[Phe(3-COOH)][hSer][PyrS2″][3Thi][Bta]Q-NH2
modifications: staple 1-4, 4-11; also: later eluting HPLC isomer composition
B24: I-2123 (peptide)
peptide: Ac-[αAllylPro]D[tBuAla][B5(4)]DHAA[Phe(3-COOH)]L[PyrS2″][3Thi][Bta]Q-NH2
modifications: staple 1-4, 4-11; also: later eluting HPLC isomer composition
B25: I-2128 (peptide)
peptide: Ac-[αAllylPro]D[tBuAla][B5(4)]DWAA[Phe(3-COOH)][hSer][PyrS2″][3Thi][Bta]Q-NH2
modifications: staple 1-4, 4-11
B26: I-2122 (peptide)
peptide: Ac-[αAllylPro]D[tBuAla][B5(4)]DHAA[Phe(3-COOH)]L[PyrS2″][3Thi][Bta]Q-NH2
modifications: staple 1-4, 4-11; also: earlier eluting HPLC isomer composition
B27: I-2127 (peptide)
peptide: Ac-[αAllylPro]D[tBuAla][B5(4)]DWAA[Phe(3-COOH)]N[PyrS2″][3Thi][Bta]Q-NH2
modifications: staple 1-4, 4-11
B28: I-2117 (peptide)
peptide: Ac-[αAllylPro]D[tBuAla][B5(4)]D[hTyr]AA[Phe(3-COOH)][hSer][PyrS2″][3Thi][Bta]Q-NH2
modifications: staple 1-4, 4-11; also: later eluting HPLC isomer composition
B29: I-2113 (peptide)
peptide: Ac-[αAllylPro]N[Cha][B5(3)]DQ[Lys(iPr)]AFN[PyrS2″]F[Bta]Q-NH2
modifications: staple 1-4, 4-11
B30: I-2116 (peptide)
peptide: Ac-[αAllylPro]D[tBuAla][B5(4)]D[hTyr]AA[Phe(3-COOH)][hSer][PyrS2″][3Thi][Bta]Q-NH2
modifications: staple 1-4, 4-11; also: earlier eluting HPLC isomer composition
B31: I-2099 (peptide)
peptide: Ac-[αAllylPro]D[tBuAla][B5(5)]D[Phe(3-COOH)]A[dA]FL[PyrS2″][2F3MeF][Bta]A-NH2
modifications: staple 1-4, 4-11; also: later eluting HPLC isomer

The first assay addresses full-length beta-Catenin (Uniprot ID P35222) (Homo sapiens (Human)) (UniProt P35222). Briefly: fluorescence polarization competition vs 5FAM-TCF4(10-53) on full-length beta-catenin. A general note: Fluorescence polarisation rises when a labelled molecule tumbles more slowly, as on binding a larger partner.
Target sequence in this assay (P35222 2-781 limits assumed): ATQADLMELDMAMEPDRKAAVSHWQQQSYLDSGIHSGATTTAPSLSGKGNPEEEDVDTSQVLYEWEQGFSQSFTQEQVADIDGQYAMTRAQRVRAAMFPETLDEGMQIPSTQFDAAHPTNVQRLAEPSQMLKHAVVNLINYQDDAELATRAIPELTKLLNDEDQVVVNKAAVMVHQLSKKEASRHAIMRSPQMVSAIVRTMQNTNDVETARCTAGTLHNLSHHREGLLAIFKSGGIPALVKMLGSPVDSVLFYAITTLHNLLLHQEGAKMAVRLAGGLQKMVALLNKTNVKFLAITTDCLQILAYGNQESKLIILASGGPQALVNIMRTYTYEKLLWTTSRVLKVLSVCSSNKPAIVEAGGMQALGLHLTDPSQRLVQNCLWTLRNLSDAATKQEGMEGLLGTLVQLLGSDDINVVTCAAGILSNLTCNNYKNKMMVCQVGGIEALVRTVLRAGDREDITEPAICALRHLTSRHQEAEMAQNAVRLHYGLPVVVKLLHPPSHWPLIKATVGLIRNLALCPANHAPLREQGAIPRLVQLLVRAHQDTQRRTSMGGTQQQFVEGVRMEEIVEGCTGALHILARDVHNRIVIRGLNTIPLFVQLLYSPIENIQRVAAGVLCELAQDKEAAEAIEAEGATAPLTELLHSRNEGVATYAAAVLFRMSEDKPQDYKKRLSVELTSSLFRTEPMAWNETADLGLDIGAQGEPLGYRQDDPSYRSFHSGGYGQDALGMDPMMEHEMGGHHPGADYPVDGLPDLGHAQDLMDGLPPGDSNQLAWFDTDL
Broadly, the IC50 is the concentration that inhibits the measured activity by half. A lower IC50 goes with greater potency. B1 displayed a 50% inhibitory concentration (IC50) of 70 nM.

For the next assay the target is unchanged. The experiment in a line: fluorescence polarization competition, 5FAM-TCF4 10-53 probe on full-length beta-catenin.
Target sequence in this assay (P35222 2-781 limits assumed): as above
Broadly, the EC50 is the concentration needed to bring the measured effect to its halfway point. Molecule B1 showed an EC50 of 70 nM.
In turn, B2 came in with an EC50 of 64 nM.

The target is the same in a further assay. Briefly: fluorescence polarization competition; full-length beta-catenin + 5FAM-TCF4(10-53) probe.
Target sequence in this assay (P35222 whole entry): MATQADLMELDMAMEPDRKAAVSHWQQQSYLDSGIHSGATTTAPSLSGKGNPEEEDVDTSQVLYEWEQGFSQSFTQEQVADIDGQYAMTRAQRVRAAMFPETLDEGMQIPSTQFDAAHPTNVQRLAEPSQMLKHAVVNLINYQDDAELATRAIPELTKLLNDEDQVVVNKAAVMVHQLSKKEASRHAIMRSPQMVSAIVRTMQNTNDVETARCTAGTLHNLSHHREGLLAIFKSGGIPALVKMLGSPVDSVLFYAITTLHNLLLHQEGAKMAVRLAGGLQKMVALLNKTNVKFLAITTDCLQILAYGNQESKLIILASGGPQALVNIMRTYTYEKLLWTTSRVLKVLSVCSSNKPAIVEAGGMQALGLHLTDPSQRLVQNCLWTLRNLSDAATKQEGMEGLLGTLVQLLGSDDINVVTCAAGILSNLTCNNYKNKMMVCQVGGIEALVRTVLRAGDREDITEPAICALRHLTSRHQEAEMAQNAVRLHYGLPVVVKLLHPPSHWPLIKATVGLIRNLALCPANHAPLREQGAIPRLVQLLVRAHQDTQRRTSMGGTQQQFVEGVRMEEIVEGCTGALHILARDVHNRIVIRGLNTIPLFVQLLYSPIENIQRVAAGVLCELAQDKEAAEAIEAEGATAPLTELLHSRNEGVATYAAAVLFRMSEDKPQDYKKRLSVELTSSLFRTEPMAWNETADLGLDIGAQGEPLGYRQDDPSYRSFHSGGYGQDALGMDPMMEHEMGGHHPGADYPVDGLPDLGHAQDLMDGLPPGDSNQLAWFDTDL
As to B3, the EC50 was 198 nM.

The target is the same in another assay. Briefly: fluorescence polarization competition; full-length beta-catenin, competitor 5FAM-TCF4(10-53) probe.
Target sequence in this assay (P35222 2-781 limits assumed): as the sequence (P35222 2-781 limits assumed) above
For B4, the EC50 turned out to be 12 nM.
B5 displayed an IC50 of 14 nM.
Consider B6, for which the EC50 was determined as 75 nM.
B7 registered an IC50 of 24 nM.
The same measure, in the same setting: then B8, with 34 nM.

The target is the same in another assay. The experiment in a line: fluorescence polarization competition; full-length beta-catenin; competitor 5FAM-TCF4(10-53) probe.
Target sequence in this assay (P35222 whole entry): as the sequence (P35222 whole entry) above
On to B5, for which the EC50 is 14 nM.
The same measure, in the same setting: under B7 stands 24 nM.
Still for that read-out and setting: under B8 stands 34 nM.

Another assay shares this target. The experiment in a line: fluorescence polarization competition; competitor 5FAM-TCF4(10-53) probe on full-length beta-catenin.
Target sequence in this assay (P35222 whole entry): as above
As to B9, the concentration for half-maximal inhibition (IC50) amounted to 29 nM.
Turning to B10, the IC50 was 29 nM. In other words, the double-digit nanomolar range.
For B11, the IC50 worked out at 136 nM. This IC50 lies about 4.7-fold higher than the previous one.
In turn, B4 registered an IC50 of 12 nM.
Same read-out and setting: then B12, with 105 nM; and B13, with 501 nM.
Same read-out and setting: then B14, with 32 nM; and B15, with 260 nM.
For B16, the 50% inhibitory concentration (IC50) came to 68 nM.
Still for that read-out and setting: under B17 stands 21 nM.
The same measure, in the same setting: under B18 stands 424 nM; under B19, 29 nM.
On the same count and under the same terms, then B20, with 88 nM; and B21, with 273 nM; and B22, with 180 nM.
B23: the IC50 worked out at 26 nM.
Still for that read-out and setting: under B24 stands 12 nM; under B25, 29 nM; under B26, 12 nM.
Same read-out and setting: then B27, with 36 nM; and B28, with 19 nM.
B29 displayed an IC50 of 164 nM.
Regarding B30, the IC50 was determined as 19 nM.
With B6, the IC50 amounted to 75 nM.
Regarding B31, the IC50 amounted to 325 nM.

Another assay has the same target. The experiment in a line: fluorescence polarization competition; displacement of 5FAM-TCF4(10-53) from full-length beta-catenin.
Target sequence in this assay (P35222 whole entry): as above
Take B2: the IC50 was determined as 64 nM.
